Assay results from the nanobody polyreactivity screen of Harvey et al. (2022).

Experiment: yeast display, Sf9 membrane polyspecificity reagent, FACS + sequencing; frameworks hold sequencing errors
Summary of the method: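 Nanobodies came from a synthetic yeast display library in Saccharomyces cerevisiae BJ5465, induced with galactose for 36–48 hours and stained for 1 hour at 4 °C with 10% biotinylated, detergent-solubilized Sf9 membrane reagent. Cells were enriched on streptavidin microbeads and then FACS-sorted, with low and high (top ~1%) gates set on anti-HA fluorescence for expression and streptavidin fluorescence for reagent binding. Each polyreactivity label reflects the gate a clone came from. Genes were amplified by colony PCR, sequenced by MiSeq 2 × 250 and filtered by CDR length.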

Sequence | polyreactivity (PSR sort gate)
QVQLVESGGGLVQAGGSLRLSCAASGRTFARNAMGWYRQAPGKDRELVAAISSSGGSTYYADSVKGRFTISRDNAKNTVYLQMNSLKPEDTAVYYCAARSRHAYGYWGQGTQVTVSS | high polyreactivity
QVQLVESGGGLVQAGGSLRLSCAASGRTFARYAMGWYRQAPGKERDLVADITSGGSTNYADSVKGRFTISRDNAKNTVYLQMNSLEPEDTAVYYCAAYVVWSWFEEYEYWGQGTQVTVSS | high polyreactivity
QVQLVESGGGLVQAGGSLRLSCAASGRTFARYTMGWYRQAPGKERELVASITRGGSTYYADSVKGRFTISRDNAKNTVYVQMNSLKPEDTAVYYCAARFPQHNYWAMDYWGQGTQVTVSS | high polyreactivity
QVQLVESGGGLVQAGGSLRLSCAASGRTFARYVMGWYRQAPGKERELVASISNSGGSTYYADSVKGRFTISRDNAKNTVYLQMNSLKPEDTAVYYCARRYYSYTTYRYDYWGQGTQVTVSS | high polyreactivity
QVQLVESGGGLVQAGGSLRLSCAASGRTFASNALGWYRQAPGKERELVADISSSGGTTYYADSVKGRFTISRDNAKNTVYLQMNSLKPEDTAVYYCAAVSSQDDPVKAWDYDYWGQGTQVTVSS | low polyreactivity
QVQLVESGGGLVQAGGSLRLSCAASGRTFASNDMGWYRQAPGKERELVADINNGARTYYADSVKGRFTISRDNAKNTVYLQMNSLKPEDTAVYYCNARPWYWWEGRYDYWGQGTQVTVSS | high polyreactivity
QVQLVESGGGLVQAGGSLRLSCAASGRTFASYAMGWYRPAPGKEREFVAVISVNGGNTYYADSVKGRFTISRDNAKNTVYLQMNSLKPEDTAVYYCARFDGWYQGYYPLYEFDYWGQGTQVTVSS | high polyreactivity
QVQLVESGGGLVQAGGSLRLSCAASGRTFASYAMGWYRQAPGKERELVATIRRSGTSTYYADSVKGRFTISRDNAKNTVYLQMNSLKPEDTAVYYCAALRSLLYRTYGYWGQGTQVTVSS | low polyreactivity
QVQLVESGGGLVQAGGSLRLSCAASGRTFATNVMGWYRQAPGKERELVAAISRSGGRTYYADSVKGRFTISRDNAKNTVYLQMNSLKPEDTAVYYCAARRRRFYYQYYRYDYWGQGTQVTVSS | high polyreactivity
QVQLVESGGGLVQAGGSLRLSCAASGRTFAVYAMGWYRQAPGKERELVAAITRSGGSTYYADSVKGRFTISRDNAKNTVYLQMNSLKPEDTAVYYCAAGGQARHDYWGQGTQVTVSS | low polyreactivity
QVQLVESGGGLVQAGGSLRLSCAASGRTFAWYAMGWYRQAPGKERELVAVIRRGSGDTYYADSVKGRFTISRDNAKNTVYLQMNSLKPEDTAVYYCAAKSVAYKTRAGGVRYESWGQGTQVTVSS | high polyreactivity
QVQLVESGGGLVQAGGSLRLSCAASGRTFAYNAMGWYRQAPGKERELVAAISGNGGRTYYADSVKGRFTISRDNAKNTVYLQMNSLKPEDTAVYYCNAAVGYYSYSYYTKVGVDYWGQGTQVTVSS | high polyreactivity
QVQLVESGGGLVQAGGSLRLSCAASGRTFAYNAMGWYRQAPGKERELVADITSGGSTYYADSVKGRFTISRDNAKNTVYLQMNRLKPEDTAVYYCAAYPQFWYWDYNYWGQGTQVTVSS | high polyreactivity
QVQLVESGGGLVQAGGSLRLSCAASGRTFAYNDRGWYRQATGKERELVAAISWSDGTTYYADSVKGRFTISRDNAKNTVYLQMYSLKPEDTAVYDCAAESYPAVVASYVSEFDYWGQGTQVPVSS | low polyreactivity
QVQLVESGGGLVQAGGSLRLSCAASGRTFAYNTMGWYRQAPGKERELVAAISTSGVRTFYADSVKGRFTISRDNAKNTVYLQMNSLKPEDTAVYSYDWGQGTQVTVSS | low polyreactivity
QVQLVESGGGLVQAGGSLRLSCAASGRTFAYYAMGWYKQAPGKERELVAAISWSGGSTYYADSVKGRFTISRDNAKNTVYLQMNSLKPEDTAVYYCAARRYGVPPTYDYWGQGTQVTVSW | high polyreactivity

Sequence | polyreactivity (PSR sort gate)
QVQLVESGGGLVQAGGSLRLSCAASGRTFAYYAMGWYRQAPGKERELVAAIDSSGGSTYYADSVKARFTISRDNAKNTVYLQMNSLKPEDTADYYCAASYPYDRYDQGGYGYWGQGTQVTVSS | low polyreactivity
QVQLVESGGGLVQAGGSLRLSCAASGRTFAYYVMGWYRPAPGKERQLVAAINRSDGSTSYADSVKGRFTISRDNAKNTVYLQMNSLKPEDTAVYYCAKSKPVGPYYYWGQGTQVTVSS | high polyreactivity
QVQLVESGGGLVQAGGSLRLSCAASGRTFCGNVMGWYRQAPGKERELVAAITNGASTNYADSVKGRFTISRDNAKNTVYLQMNSLKPEDTAVYYCAASANNWRRRGRSYEYWGQGTQVTVSS | low polyreactivity
QVQLVESGGGLVQAGGSLRLSCAASGRTFCRYPMGWYRQAPGKERELVAAISSSGITYYAESVKGRFTISRDNAKNTVYLQMNSLKPEDTEVYYCAVRWGRGFWGQGTQVTVSS | high polyreactivity
QVQLVESGGGLVQAGGSLRLSCAASGRTFDAYAMGWYRQAPGKERELVATITSGGGTYYADSVKGRFTISRDNAKNTVYLQMNSLKPEDTAVYYCKKRYVVSRKYDYWGQGTQVTVSS | low polyreactivity
QVQLVESGGGLVQAGGSLRLSCAASGRTFDDYAMGWYIQAPGKERELVAGIRWSVGNTDYADSVKGRFTISRDNAKNTVYLQMNSLKPEDTAVYYCNARPFLTVLYLFYGNNYDYWGQGTQVTVSS | low polyreactivity
QVQLVESGGGLVQAGGSLRLSCAASGRTFDEYAMGWYRQAPGKERELVDAINSSGNTYYADSVKGRFTISRDNAKNTVYLQMNSLKPEDTAVYYCAVRSYNTIYDDMDYWGQGTQVTVSS | low polyreactivity
QVQLVESGGGLVQAGGSLRLSCAASGRTFDHNAMGWYRQAPGKERELVAAITSRGGSTYYADSVKGRFTISRDNAKNTVYLQMNSLKPEDTAVYYCNRYKSSSYIRGDYWGQGTQVTVSS | high polyreactivity
QVQLVESGGGLVQAGGSLRLSCAASGRTFDIYAMGWYRQAHGKERELVAAISSGGSTYYADSVKGRFTISRDNAKNTVYLQMNSLKPEDTAVYYCAVRWYDQVSRRGIGYYWGQGTQVTVSS | low polyreactivity
QVQLVESGGGLVQAGGSLRLSCAASGRTFDIYAMGWYRQAPGKERELVAAISSGGSTYYADSVKGRFTISRDNAKNTVYLQMNSLKPEDTAVYYCAVRWYDQVSRRGIGYYWGQGTQVTVSS | low polyreactivity
QVQLVESGGGLVQAGGSLRLSCAASGRTFDLNAMGWYRQAPGKERELVAAISFSVADTYYADSVKGRFTISRDNAKNTVYLQMNSLKPEDTAVYYCAADSELGSLSGESDYWGQGTQVTVSS | low polyreactivity
QVQLVESGGGLVQAGGSLRLSCAASGRTFDLYAMGWYRQAPGKERELVARITNIDDSTYYADSVKGRFTISRDYAKNTVYLQMNSLKPEDTAVYYCNAASYSRGPARYDYWGQGTQVTVSS | high polyreactivity
QVQLVESGGGLVQAGGSLRLSCAASGRTFDPYAMGWYRQAPGKDRELVAAISRSGGSTYYADSVKGRFTISRDNAKNTVYLQMNSLKPEDTAVYYCAADASRYYYEYDYWGQGTQVTVSS | high polyreactivity
QVQLVESGGGLVQAGGSLRLSCAASGRTFDQYAMGWYTPAPGKARELVADITWSGGTTRYADSVKRRFTISRDNAKNTVYLQMNSLKPEDTAVYYCAVDVTCGYNYWGQGTQVNVSS | low polyreactivity
QVQLVESGGGLVQAGGSLRLSCAASGRTFDRNAMGWYRQAPGKERELVAAITSRGGRTYYADSVKGRFTISRDNAKNTVYLQMNSLKPEDTAVYYCAADLFSSRVRSNFDYWGQGTQVTVSS | high polyreactivity
QVQLVESGGGLVQAGGSLRLSCAASGRTFDSNTMGWYRQAPGKERELVAAITGSGGRTYYADSVKGRFTISRDNAKNSVYLQMNSLKPEDTAVYYCAARPYFYERSAGYYWGQGTQVTVSS | high polyreactivity
